{
  "source": "paper doi:10.1101/850305",
  "about": "(bioRxiv, 2019)",
  "proteins": {"B1": {"name": "E. coli LpxA UDP-N-acetylglucosamine acyltransferase (enzyme, UniProt P0A722 1-262, looked up)", "chain": "MIDKSAFVHPTAIVEEGASIGANAHIGPFCIVGPHVEIGEGTVLKSHVVVNGHTKIGRDNEIYQFASIGEVNQDLKYAGEPTRVEIGDRNRIRESVTIHRGTVQGGGLTKVGSDNLLMINAHIAHDCTVGNRCILANNATLAGHVSVDDFAIIGGMTAVHQFCIIGAHVMVGGCSGVAQDVPPYVIAQGNHATPFGVNIEGLKRRGFSREAITAIRNAYKLIYRSGKTLDEVKPEIAELAETYPEVKAFTDFFARSTRGLIR"}},
  "target": "the molecule itself",
  "assay": "crystal structure",
  "data": [
    {"protein": "B1", "values": [
      {"measurement": "stoichiometry N", "result": 3}
    ]}
  ]
}
